Measured values taken from patent EP4538285A1.

Target: wild-type human PD-1, expressed on cells (PD1-CD28) (human) (UniProt P10747)
Assay: cell-based or functional assay

Sequence of wild-type human PD-1, expressed on cells (PD1-CD28) (human) (P10747 other isoform, or with tags, fused parts or gaps limits assumed): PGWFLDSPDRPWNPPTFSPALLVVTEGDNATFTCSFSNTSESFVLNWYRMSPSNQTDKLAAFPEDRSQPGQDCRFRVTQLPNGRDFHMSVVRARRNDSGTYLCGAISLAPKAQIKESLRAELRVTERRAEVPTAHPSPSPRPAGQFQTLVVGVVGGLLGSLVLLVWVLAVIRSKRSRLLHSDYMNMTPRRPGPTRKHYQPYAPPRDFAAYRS

- IL-2 concentration (pg/ml) at 0.8 nM: 432 pg/mL
- IL-2 concentration (pg/ml) at 1.6 nM: 440 pg/mL
- IL-2 concentration (pg/ml) at 3.2 nM: 440 pg/mL
- IL-2 concentration (pg/ml) at 6.4 nM: 56.1 pg/mL
- IL-2 concentration (pg/ml) at 12.8 nM: 36.9 pg/mL
- IL-2 concentration (pg/ml) at 25.6 nM: 47.7 pg/mL
- IL-2 concentration (pg/ml) at 51.2 nM: 80.5 pg/mL
- IL-2 concentration (pg/ml) at 102.4 nM: 126 pg/mL
Substance: Tilelizumab (antibody)
